B1: Translocated intimin receptor Tir (Escherichia coli O157:H7), Q7DB77 (parent)
chain: MPIGNLGHNPNVNNSIPPAPPLPSQTDGAGGRGQLINSTGPLGSRALFTPVRNSMADSGDNRASDVPGLPVNPMRLAASEITLNDGFEVLHDHGPLDTLNRQIGSSVFRVETQEDGKHIAVGQRNGVETSVVLSDQEYARLQSIDPEGKDKFVFTGGRGGAGHAMVTVASDITEARQRILELLEPKGTGESKGAGESKGVGELRESNSGAENTTETQTSTSTSSLRSDPKLWLALGTVATGLIGLAATGIVQALALTPEPDSPTTTDPDAAASATETATRDQLTKEAFQNPDNQKVNIDELGNAIPSGVLKDDVVANIEEQAKAAGEEAKQQAIENNAQAQKKYDEQQAKRQEELKVSSGAGYGLSGALILGGGIGVAVTAALHRKNQPVEQTTTTTTTTTTTSARTVENKPANNTPAQGNVDTPGSEDTMESRRSSMASTSSTFFDTSSIGTVQNPYADVKTSLHDSQVPTSNSNTSVQNMGNTDSVVYSTIQHPPRDTTDNGARLLGNPSAGIQSTYARLALSGGLRHDMGGLTGGSNSAVNTSNNPPAPGSHRFV
B2: Translocated intimin receptor Tir (Escherichia coli O127:H6 (strain E2348/69 / EPEC)), B7UM99 (parent)
chain: MPIGNLGNNVNGNHLIPPAPPLPSQTDGAARGGTGHLISSTGALGSRSLFSPLRNSMADSVDSRDIPGLPTNPSRLAAATSETCLLGGFEVLHDKGPLDILNTQIGPSAFRVEVQADGTHAAIGEKNGLEVSVTLSPQEWSSLQSIDTEGKNRFVFTGGRGGSGHPMVTVASDIAEARTKILAKLDPDNHGGRQPKDVDTRSVGVGSASGIDDGVVSETHTSTTNSSVRSDPKFWVSVGAIAAGLAGLAATGIAQALALTPEPDDPTTTDPDQAANAAESATKDQLTQEAFKNPENQKVNIDANGNAIPSGELKDDIVEQIAQQAKEAGEVARQQAVESNAQAQQRYEDQHARRQEELQLSSGIGYGLSSALIVAGGIGAGVTTALHRRNQPAEQTTTTTTHTVVQQQTGGNTPAQGGTDATRAEDASLNRRDSQGSVASTHWSDSSSEVVNPYAEVGGARNSLSAHQPEEHIYDEVAADPGYSVIQNFSGSGPVTGRLIGTPGQGIQSTYALLANSGGLRLGMGGLTSGGESAVSSVNAAPTPGPVRFV

Variants of: B1
Conditions: with ptn6_human PTPN6, P29350
Target sequence in this assay (P29350 whole entry): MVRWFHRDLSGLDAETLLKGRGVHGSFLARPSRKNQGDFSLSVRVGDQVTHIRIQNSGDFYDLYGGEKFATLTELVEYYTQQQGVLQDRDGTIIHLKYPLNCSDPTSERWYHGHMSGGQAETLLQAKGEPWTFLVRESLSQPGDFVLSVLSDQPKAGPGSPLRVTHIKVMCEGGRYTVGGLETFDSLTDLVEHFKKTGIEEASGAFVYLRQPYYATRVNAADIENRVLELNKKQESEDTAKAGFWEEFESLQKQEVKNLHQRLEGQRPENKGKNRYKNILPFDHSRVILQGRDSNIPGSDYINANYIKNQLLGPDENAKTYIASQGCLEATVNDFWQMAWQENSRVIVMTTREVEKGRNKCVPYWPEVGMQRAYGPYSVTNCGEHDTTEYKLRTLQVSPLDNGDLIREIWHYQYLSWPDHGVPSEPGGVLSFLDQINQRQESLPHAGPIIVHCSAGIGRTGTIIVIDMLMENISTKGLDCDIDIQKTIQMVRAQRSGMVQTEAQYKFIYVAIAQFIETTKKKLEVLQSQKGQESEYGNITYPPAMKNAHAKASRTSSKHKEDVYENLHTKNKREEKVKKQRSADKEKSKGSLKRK

Row | Variant | effect of a mutation on the interaction
1 | Y490F;Y519F | decreasing interaction

Variants of: B2
Conditions: with ptn6_human PTPN6, P29350
Target sequence in this assay (P29350 whole entry): as above

Row | Variant | effect of a mutation on the interaction
2 | Y483F;Y511F | decreasing interaction
3 | Y483F | decreasing interaction
4 | Y511F | decreasing interaction

Variants of: B2
Conditions: with ptn6_mouse Ptpn6, P29351
ptn6_mouse Ptpn6, P29351, sequence (P29351 whole entry): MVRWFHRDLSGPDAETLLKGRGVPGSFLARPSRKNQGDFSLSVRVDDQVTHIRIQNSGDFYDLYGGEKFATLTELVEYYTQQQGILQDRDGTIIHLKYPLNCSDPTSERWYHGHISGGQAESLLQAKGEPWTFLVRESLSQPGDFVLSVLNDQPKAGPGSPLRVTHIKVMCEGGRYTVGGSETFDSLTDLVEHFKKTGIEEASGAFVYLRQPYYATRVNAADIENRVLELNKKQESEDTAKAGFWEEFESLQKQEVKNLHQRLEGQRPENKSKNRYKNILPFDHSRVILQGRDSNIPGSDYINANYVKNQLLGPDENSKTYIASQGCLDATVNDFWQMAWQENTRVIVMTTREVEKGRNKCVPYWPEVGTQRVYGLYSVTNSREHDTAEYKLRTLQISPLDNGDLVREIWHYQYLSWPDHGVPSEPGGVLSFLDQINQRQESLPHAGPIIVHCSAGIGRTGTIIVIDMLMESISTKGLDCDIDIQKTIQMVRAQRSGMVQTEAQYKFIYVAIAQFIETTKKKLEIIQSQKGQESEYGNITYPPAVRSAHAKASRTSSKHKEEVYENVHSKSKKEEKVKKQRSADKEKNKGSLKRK

Row | Variant | effect of a mutation on the interaction
5 | Y483F;Y511F | decreasing interaction

Reference: IntAct's records for PubMed 23001144
